Laboratory results: publication PMC3471226 (The Journal of Cell Biology, 2012)

T1: GST-Tiam1-PDZ4 (mouse, UniProt Q60610 765-1234)
T1 sequence: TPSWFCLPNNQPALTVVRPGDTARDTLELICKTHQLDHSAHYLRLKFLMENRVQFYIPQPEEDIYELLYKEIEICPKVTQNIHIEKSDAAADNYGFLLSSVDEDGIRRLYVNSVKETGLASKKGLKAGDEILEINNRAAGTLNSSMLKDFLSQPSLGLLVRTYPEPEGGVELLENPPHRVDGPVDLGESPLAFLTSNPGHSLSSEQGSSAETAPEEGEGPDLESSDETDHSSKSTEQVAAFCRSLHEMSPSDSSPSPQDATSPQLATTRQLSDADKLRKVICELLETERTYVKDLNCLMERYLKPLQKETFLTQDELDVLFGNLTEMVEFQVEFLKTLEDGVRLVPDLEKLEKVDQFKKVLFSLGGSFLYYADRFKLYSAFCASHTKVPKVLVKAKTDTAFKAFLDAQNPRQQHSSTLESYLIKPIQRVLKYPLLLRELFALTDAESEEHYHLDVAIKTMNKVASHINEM


Columns and labels:
[1] = biological target: GST-talin1 A366/368 (mouse) (UniProt P26039); experiment: pull-down
[2] = biological target: T1, GST-Tiam1-PDZ4; experiment: SPR

Molecule | decrease of association relative to wild type [1] [%] | Kd [2] [nM]
Tiam1-C1199-HA (from UniProt Q60610 1-1591) (domain or fragment) | 90 | –
His-talin1 (1–433 aa) (domain or fragment, mouse, UniProt P26039 1-433, looked up) MVALSLKISIGNVVKTMQFEPSTMVYDACRMIRERIPEALAGPPNDFGLFLSDDDPKKGIWLEAGKALDYYMLRNGDTMEYRKKQRPLKIRMLDGTVKTIMVDDSKTVTDMLMTICARIGITNHDEYSLVRELMEEKKDEGTGTLRKDKTLLRDEKKMEKLKQKLHTDDELNWLDHGRTLREQGVEEHETLLLRRKFFYSDQNVDSRDPVQLNLLYVQARDDILNGSHPVSFDKACEFAGFQCQIQFGPHNEQKHKAGFLDLKDFLPKEYVKQKGERKIFQAHKNCGQMSEIEAKVRYVKLARSLKTYGVSFFLVKEKMKGKNKLVPRLLGITKECVMRVDEKTKEVIQEWSLTNIKRWAASPKSFTLDFGDYQDGYYSVQTTEGEQIAQLIAGYIDIILKKKKSKDHFGLEGDEESTMLEDSVSPKKSTVLQ | – | ~430
